Test results from patent US20210230279A1.

Columns and labels:
[1] = biological target: recombinant human integrin αvβ6 (human) (UniProt P18564); test: competition of 3G9 with RGD3 for binding to αvβ6 (sheet title); y axis 'Relative Inhibition of avb6 binding to TGFb3 peptide'; signal falls from about 1.03 to about 0.04 at log 4
[2] = biological target: recombinant human integrin αvβ6 (human) (UniProt P18564); test: blocking of adhesion (A590) of Cho cells expressing GARP/LTGFB1 to immobilized αvβ6; antibody concentration varied; unit taken from the axis log[Agonist], (ug/ml)
[3] = biological target: recombinant human integrin αvβ6 (human) (UniProt P18564)

recombinant human integrin αvβ6 (human), sequence (chain, as listed by the source limits assumed, chain 1 of 2): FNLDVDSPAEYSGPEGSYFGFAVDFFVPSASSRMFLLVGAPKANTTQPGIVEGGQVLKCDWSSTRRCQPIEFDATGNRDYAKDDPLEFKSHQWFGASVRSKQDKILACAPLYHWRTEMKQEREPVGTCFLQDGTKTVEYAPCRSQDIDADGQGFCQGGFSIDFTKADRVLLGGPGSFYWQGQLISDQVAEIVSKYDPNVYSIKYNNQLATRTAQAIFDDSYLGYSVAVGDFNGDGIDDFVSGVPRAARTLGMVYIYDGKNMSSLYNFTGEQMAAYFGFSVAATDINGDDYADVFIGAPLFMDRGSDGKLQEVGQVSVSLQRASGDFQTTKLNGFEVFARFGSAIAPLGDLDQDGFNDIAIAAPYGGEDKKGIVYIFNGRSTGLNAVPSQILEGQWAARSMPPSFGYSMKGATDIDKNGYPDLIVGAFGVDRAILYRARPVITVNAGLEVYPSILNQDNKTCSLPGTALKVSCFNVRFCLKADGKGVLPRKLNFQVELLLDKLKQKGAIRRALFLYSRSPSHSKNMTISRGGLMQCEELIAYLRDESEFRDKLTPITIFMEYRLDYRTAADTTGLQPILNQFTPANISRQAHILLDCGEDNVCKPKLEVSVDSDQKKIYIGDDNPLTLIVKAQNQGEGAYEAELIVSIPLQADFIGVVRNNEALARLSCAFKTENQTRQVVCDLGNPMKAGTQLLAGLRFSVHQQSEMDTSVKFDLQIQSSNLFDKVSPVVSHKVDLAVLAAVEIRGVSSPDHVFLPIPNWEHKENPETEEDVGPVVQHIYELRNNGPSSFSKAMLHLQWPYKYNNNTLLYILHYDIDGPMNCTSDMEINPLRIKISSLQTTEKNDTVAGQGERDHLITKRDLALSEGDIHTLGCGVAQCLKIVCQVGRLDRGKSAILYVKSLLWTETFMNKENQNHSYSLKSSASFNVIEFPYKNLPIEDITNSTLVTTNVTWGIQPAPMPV
recombinant human integrin αvβ6 (human), sequence (P18564 22-707 limits assumed, chain 2 of 2): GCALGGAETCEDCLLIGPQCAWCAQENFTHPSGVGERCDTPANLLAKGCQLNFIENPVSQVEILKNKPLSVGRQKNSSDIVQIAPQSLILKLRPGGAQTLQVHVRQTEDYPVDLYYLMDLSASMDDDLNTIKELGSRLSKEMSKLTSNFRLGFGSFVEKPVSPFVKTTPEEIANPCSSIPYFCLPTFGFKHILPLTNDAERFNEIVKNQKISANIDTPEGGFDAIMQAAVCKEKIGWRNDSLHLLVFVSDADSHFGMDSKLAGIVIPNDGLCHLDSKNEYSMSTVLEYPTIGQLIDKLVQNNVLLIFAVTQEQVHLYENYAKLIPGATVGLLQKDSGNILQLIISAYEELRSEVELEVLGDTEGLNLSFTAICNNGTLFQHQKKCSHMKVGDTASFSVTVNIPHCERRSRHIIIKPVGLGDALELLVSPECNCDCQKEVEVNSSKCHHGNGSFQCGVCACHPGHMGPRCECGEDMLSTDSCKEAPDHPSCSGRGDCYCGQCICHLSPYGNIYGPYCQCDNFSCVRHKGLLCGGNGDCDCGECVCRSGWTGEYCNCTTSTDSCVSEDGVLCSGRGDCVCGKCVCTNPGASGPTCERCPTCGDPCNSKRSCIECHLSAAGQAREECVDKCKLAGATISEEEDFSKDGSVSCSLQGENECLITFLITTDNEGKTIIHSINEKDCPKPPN

- LogEC50 (Log10 (ng/ml)) [1]: 2.93
- EC50 [2]: 0.834 µg/mL
- EC50 of inhibition of TGF-β activation (TMLC luciferase reporter) of GARP/LTGFB1 Cho cells on immobilized αvβ6; unit from the axis [3]: 0.922 µg/mL
Substance: Mab 3G9 (anti-β6) (antibody)
